Test system: MS2 coat protein
Experiment: apparent KD of MS2 coat protein; designed switch direction (-1 OFF switch, 1 ON switch): -1; higher = weaker reporter binding
Outline: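 Each step of the titration lasted 0.8–1.5 h at the lowest concentration and 10–20 min at the highest. The protein, SNAP-549-labelled MS2 coat protein, went from 0.7 or 1.5 nM doubling to 3 µM over RNA switches transcribed on Illumina chips by stalled E. coli RNA polymerase. Normalised cluster fluorescence was curve-fitted, and the per-design median over clusters is given as apparent KD.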

[1] = input ligand: microRNA oligo, concentration not stated
[2] = Eterna round: R95, input ligand: FMN 200 uM
[3] = Eterna round: R95, input ligand: microRNA oligo, concentration not stated
[4] = Eterna round: R95, input ligand: none

Sequence | apparent KD of MS2 coat protein (input ligand: FMN 200 uM) [nM] | apparent KD of MS2 coat protein (input ligand: none) [nM] | apparent KD of MS2 coat protein [3] [nM] | other results
CUGCUCCGUGUAGGAUAUGCAUACUCCCAUUAUGCAGAAGGACAUGAGGAUCACCCAUGUAUGUUAUUAUCACGUGUAGCGUAC [Design 15] (Eterna round: R96, puzzle: Exclusion NG 1) | 104 | 29.9 |  | apparent KD of MS2 coat protein [1]: 21.2 nM
CUGCUCCGUGUAGGAUAUGCGUACAACCAAUAUGCAGAAGGACAUGAGGAUCACCCAUGUAUGUUAUUAUCACGUGAAGCGUCC [Design 21] (Eterna round: R96, puzzle: Exclusion NG 1) |  |  |  | apparent KD of MS2 coat protein [1]: 16 nM
CUGCUGGAGCUUCGCUUUGGUCGUACAUGAGGAUCACCCAUGUAGGAUAUGGUAAAAUUCGCCUGCUAGAAGGAUAGAGUGGUC [salish99_ExNG3_r04_619] (Eterna round: R96, puzzle: Exclusion NG 3) |  |  |  | apparent KD of MS2 coat protein [1]: 80.1 nM
CUGGAUAGAGGAUAUUGUACUGCUGACAUGAGGAUCACCCAUGUAUGUUAACUCGGCCGUCGAGAAGGCUAACAAA [BotMod 14 - Jieux - Exclusion 5] (Eterna round: R97, puzzle: Exclusion 5) | 16.3 | 33.4 |  | 
CUGGUCCGAGGAUAUAUGAUGUGAAACAUGAGGAUCACCCAUGUAAUAUUAUGGAUGGAAAUAGAAGGCGGACUAG [Mat - Exclusion 5 - JL mod - D36] (puzzle: Exclusion 5) |  |  | 49.7 | apparent KD of MS2 coat protein [2]: 63.5 nM; apparent KD of MS2 coat protein [4]: 65.2 nM
CUGGUCCGAGGAUAUAUGAUGUGAAACAUGAGGAUCACCCAUGUAAUAUUAUGGAUGUAAAUAGAAGGCGGACUAG [JL-ex5-3.08] (puzzle: Exclusion 5) |  |  | 33.9 | apparent KD of MS2 coat protein [2]: 37.8 nM; apparent KD of MS2 coat protein [4]: 74.2 nM
CUGGUCCGAGGAUAUAUUAUGUGAAACAUGAGGAUCACCCAUGUUAUAUAAUGGAUGUAAAUAGAAGGCGGACUAG [Mat - Exclusion 5 - JL mod - D62] (puzzle: Exclusion 5) |  |  | 25.5 | apparent KD of MS2 coat protein [2]: 27.7 nM; apparent KD of MS2 coat protein [4]: 28.2 nM
CUGGUCCGAGGAUAUAUUAUGUGAUACAUGAGGAUCACCCAUGUUAUAUGAUGGAUAUUAAUAGAAGGCGGACUAG [Mat - Exclusion 5 - JL mod - D73] (puzzle: Exclusion 5) |  |  | 71.5 | apparent KD of MS2 coat protein [2]: 85.5 nM; apparent KD of MS2 coat protein [4]: 83.9 nM
CUGGUCCGAGGAUAUUUUAUGUGAUACAUGAGGAUCACCCAUGUUAUAUGAUGGAUGUUAAAAGAAGGCGGACUAG [Mat - Exclusion 5 - JL mod - D80] (puzzle: Exclusion 5) |  |  | 102 | apparent KD of MS2 coat protein [2]: 77 nM; apparent KD of MS2 coat protein [4]: 114 nM
CUGGUGUGAGGAUAUCAAAGACCUCGGGAUAGUAGCGAGGAUGAGAAGGCACAUGAGGAUCACCCAUGUAACAA [Edmaer] (puzzle: Exclusion 4) |  |  | 21.2 | 
CUGGUUGUCGAGGAUAUGCACCGGCUCGCUGACGCAGAAGGCGACACAUGAGGAUCACCCAUGUCGGUUCGCGU [salish99_ex6_r004_438] (Eterna round: R97, puzzle: Exclusion 6) | 29 | 19.1 |  | 
CUGUACAUAGGAUAUAGUUGUUUUUACAUGAGGAUCACCCAUGUUACUCCUCUCUCUCUUCUAGAAGGAUGUUUUU [JR_E5_Sub007] (Eterna round: R96, puzzle: Exclusion 5) | 70.7 | 67 |  | apparent KD of MS2 coat protein [1]: 50.7 nM
CUGUACAUAGGAUAUAGUUGUUUUUACAUGAGGAUCACCCAUGUUACUCCUCUCUCUCUUCUAGAAGGAUGUUUUU [JR_E5_Sub007] (puzzle: Exclusion 5) |  |  | 78.1 | 
CUGUACUGAGGAUAUACAUGAGGAUCACCCAUGUUCCAAGGCUAGGAAACUAGCAAAGGUAGAAGGCAGUACAG [Mat - Exclusion 3 - Eli Mod - D67] (Eterna round: R97, puzzle: Exclusion 3) | 215 | 17.8 |  | 
CUGUCCCAAGGAUAUACAUCAGUCCCAGGGUGCCGCAUAAGACAUGAGGAUCACCCAUGUAGAAGGUGGAGACC [Esaranre] (puzzle: Exclusion 2) |  |  | 82.1 | 
CUGUGCAUAGGAUAUGAAAGAAGAAACAUGAGGAUCACCCAUGUAGCCUCAAAUCUUAUGUCAGAAGGAUGCGUUA [Default title] (Eterna round: R97, puzzle: Exclusion 5) | 15.9 | 13.6 |  | 
CUGUUUGUAGGAUAUACAUGCGGAACCCUCCUCGUGUGAAGACAUGAGGAUCACCCAUGUAGAAGGACGAGGAG [Angeer] (Eterna round: R97, puzzle: Exclusion 2) | 16 | 16.3 |  | 

Sequence | apparent KD of MS2 coat protein (input ligand: FMN 200 uM) [nM] | apparent KD of MS2 coat protein (input ligand: none) [nM] | apparent KD of MS2 coat protein [3] [nM] | other results
CUGUUUUUCGCAGGAUAUGCUCCUCCUUUAUUAGCAGAAGGGCGUUAAACAUGAGGAUCACCCAUGUAUGGUAAUGACAUUUUC [JR_ExcNG1_Sub062] (Eterna round: R96, puzzle: Exclusion NG 1) |  |  |  | apparent KD of MS2 coat protein [1]: 29.8 nM
CUGUUUUUCGCAGGAUAUGCUCCUCCUUUAUUUGCAGAAGGGCGUUAAACAUGAGGAUCACCCAUGUAUGGUAAUGACUUUUUC [JR_ExcNG1_Sub064] (Eterna round: R96, puzzle: Exclusion NG 1) |  |  |  | apparent KD of MS2 coat protein [1]: 16.9 nM
CUUAAAAGGAAGGAUAUGCUAGACGAAAGUCUAGCAGAAGGUCCUACAUGAGGAUCACCCAUGUGUCCUGUAAG [Mat - Exclusion 6 - Eli Mod - D41] (Eterna round: R97, puzzle: Exclusion 6) | 95.6 | 53.9 |  | 
CUUAAACAUGAGGAUCACCCAUGUGAGGAUAUGAUGCGAAUAAAGAAAGAAGAAAGCAUCAGAAGGCACAUAUG (Eterna round: R96, puzzle: Exclusion 1) |  |  |  | apparent KD of MS2 coat protein [1]: 65.9 nM
CUUAAGGCAGGAUAUGCUUUUUGUGACAUGAGGAUCACCCAUGUGAUGCAGUUUGGGUGUGCAGAAGGGCCUGAGU [JR_E5_Sub033] (puzzle: Exclusion 5) |  |  | 378 | 
CUUACACAUGAGGAUCACCCAUGUGAGGAUAUGCGUACGUUGUCCGUAGGCGACGUGCGCAGAAGGCGCUUGGU [JL-ex1-3.19 Eli mod] (puzzle: Exclusion 1) |  |  | 55.3 | 
CUUAGACAUGAGGAUCACCCAUGUGAGGAUAUGAAAUUAAUUAAGUAUGAAGUAUGAAUCAGAAGGCACAUAUG [Mat - Mod of Hyphema D34] (puzzle: Exclusion 1) |  |  | 92.1 | apparent KD of MS2 coat protein [2]: 61.7 nM; apparent KD of MS2 coat protein [4]: 81.6 nM
CUUAGCCUAAAAUCACGCAAGCUUUUUACUUGUCUUAAGACAUGAGGAUCACCCAUGUCCGGGCUGAACUUAUGGAA [Zaortequ] (puzzle: Sensor v3, turn-off variant 2) |  |  | 269 | apparent KD of MS2 coat protein [2]: 21.2 nM; apparent KD of MS2 coat protein [4]: 21.4 nM
CUUAUGUGAGGAUAUCAGUAGUGAUACGAUAGUAUUACUGCUGAGAAGGCACAUGAGGAUCACCCAUGUUCCUC [Exclusion 4 - Mod Omei Ex4 344 mod 4 v.2] (puzzle: Exclusion 4) |  |  | 91.6 | 
CUUAUGUGAGGAUAUGCCUGGCCGUGAGGCCAAAUUGAUUAGCAGAAGGCACAUGAGGAUCACCCAUGUGCGGG [jl-ex4-4.67 ViennaUCT mod] (Eterna round: R97, puzzle: Exclusion 4) | 340 | 479 |  | 
CUUCAAGCACCAGAGCUCACACUUAUACCUGCUCUGGUGACAUGAGGAUCACCCAUGUUUUUUGCCCGUCUUAUCUU [Sensor v3, turn-off variant 2 (MOD of Leso v.2)] (Eterna round: R96, puzzle: Sensor v3, turn-off variant 2) | 178 | 250 |  | apparent KD of MS2 coat protein [1]: 101 nM
CUUCAAGCACCAGAGCUCACACUUAUACCUGCUCUGGUGACAUGAGGAUCACCCAUGUUUUUUGCCCGUCUUAUCUU [Sensor v3, turn-off variant 2 (MOD of Leso v.2)] (puzzle: Sensor v3, turn-off variant 2) |  |  | 276 | apparent KD of MS2 coat protein [2]: 92.8 nM; apparent KD of MS2 coat protein [4]: 115 nM
CUUCACCCACUAGAGCUCACCCACAAACCUACUCUAGUGACAUGAGGAUCACCCAUGUUUUUUGCCCGUCUUAUCUU [Qugeenerce] (puzzle: Sensor v3, turn-off variant 2) |  |  | 184 | apparent KD of MS2 coat protein [2]: 40.2 nM; apparent KD of MS2 coat protein [4]: 41.4 nM
CUUCGACAUGAGGAUCACCCAUGUCAGGAUAUUGUGUAUCGGGUGUUGGACGGAUAGGCAAGAAGGGAUGUGUG [LRO-Excl1-05] (puzzle: Exclusion 1) |  |  | 27.8 | 
CUUCUCAGAGUCAGGAUAUAGUCGAAAGGGCUAGACUAGAAGGGACAUGAGGAUCACCCAUGUAAAAUAUCAAA [Razalequ] (puzzle: Brourd's mod of Exclusion 4) |  |  | 20.4 | 
CUUCUCGUUGUGAGGAUAUCGUUUUCGUCUCGGAUCGAGAAGGCACAUGAGGAUCACCCAUGUUUGUUGUGGUU [JR_BMOE4_Sub090] (puzzle: Brourd's mod of Exclusion 4) |  |  | 87.9 | 
